Data reported in the supplement of paper PMC10065799, “High-throughput profiling of sequence recognition by tyrosine kinases and SH2 domains using bacterial peptide display” (eLife, 2023).

What was measured:
Fyn = Fyn (UniProt P06241); assay: phosphorylation enrichment, bacterial display (enrichment ratio); higher = better substrate or ligand; peptides without Tyr show the background
FGFR3 = FGFR3 (UniProt P22607); assay: as above
EPHB1 = EPHB1 (UniProt P54762); assay: as above
Hck = Hck (UniProt P08631); assay: as above
c-Abl (mouse) = assay: as above
Jak2 = Jak2 (UniProt O60674); assay: as above
AncSZ = assay: as above
MERTK = MERTK (UniProt Q12866); assay: as above
Fer (mouse) = assay: as above
FGFR1 = FGFR1 (UniProt P11362); assay: as above
Fes = Fes (UniProt P07332); assay: as above
c-Src = assay: as above
EPHB2 = EPHB2 (UniProt P29323); assay: as above
SHP2-C SH2 = assay: SH2 binding enrichment of the phosphorylated peptide, bacterial display (enrichment ratio); higher = better substrate or ligand; peptides without Tyr show the background
Grb2 SH2 = Grb2 SH2 (UniProt P62993); assay: as above
c-Src SH2 = assay: as above
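Wherever SH2 binding enrichment of the phosphorylated peptide, bacterial display is given: peptide library displayed on the E. coli surface as eCPX fusions, selected cells deep-sequenced, score is each peptide's frequency after selection divided by its frequency in the input.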
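Wherever phosphorylation enrichment, bacterial display is given: 11-residue human phosphosite peptides and single-mutation variants displayed on the E. coli surface, counted by deep sequencing, each peptide's frequency after selection divided by its frequency in the unselected input library; frequency after pTyr selection over input frequency; kinase dosed for 20-30% of maximal phosphorylation in three min.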

Hck, sequence (P08631 whole entry, looked up): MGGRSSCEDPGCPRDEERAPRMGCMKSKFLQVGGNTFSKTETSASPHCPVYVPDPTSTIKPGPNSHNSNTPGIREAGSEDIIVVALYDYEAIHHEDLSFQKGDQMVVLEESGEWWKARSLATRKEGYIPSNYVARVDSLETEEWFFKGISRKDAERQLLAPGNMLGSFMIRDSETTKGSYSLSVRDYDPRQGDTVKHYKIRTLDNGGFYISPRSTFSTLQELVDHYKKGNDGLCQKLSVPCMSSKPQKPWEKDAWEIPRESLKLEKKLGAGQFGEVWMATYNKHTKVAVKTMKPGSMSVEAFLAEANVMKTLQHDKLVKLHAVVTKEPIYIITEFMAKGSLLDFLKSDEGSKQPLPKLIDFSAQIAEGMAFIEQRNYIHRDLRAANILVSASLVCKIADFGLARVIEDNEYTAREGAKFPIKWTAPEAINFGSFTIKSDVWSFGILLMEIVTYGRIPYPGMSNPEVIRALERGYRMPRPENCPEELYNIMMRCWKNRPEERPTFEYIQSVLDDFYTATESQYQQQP
EPHB1, sequence (P54762 whole entry, looked up): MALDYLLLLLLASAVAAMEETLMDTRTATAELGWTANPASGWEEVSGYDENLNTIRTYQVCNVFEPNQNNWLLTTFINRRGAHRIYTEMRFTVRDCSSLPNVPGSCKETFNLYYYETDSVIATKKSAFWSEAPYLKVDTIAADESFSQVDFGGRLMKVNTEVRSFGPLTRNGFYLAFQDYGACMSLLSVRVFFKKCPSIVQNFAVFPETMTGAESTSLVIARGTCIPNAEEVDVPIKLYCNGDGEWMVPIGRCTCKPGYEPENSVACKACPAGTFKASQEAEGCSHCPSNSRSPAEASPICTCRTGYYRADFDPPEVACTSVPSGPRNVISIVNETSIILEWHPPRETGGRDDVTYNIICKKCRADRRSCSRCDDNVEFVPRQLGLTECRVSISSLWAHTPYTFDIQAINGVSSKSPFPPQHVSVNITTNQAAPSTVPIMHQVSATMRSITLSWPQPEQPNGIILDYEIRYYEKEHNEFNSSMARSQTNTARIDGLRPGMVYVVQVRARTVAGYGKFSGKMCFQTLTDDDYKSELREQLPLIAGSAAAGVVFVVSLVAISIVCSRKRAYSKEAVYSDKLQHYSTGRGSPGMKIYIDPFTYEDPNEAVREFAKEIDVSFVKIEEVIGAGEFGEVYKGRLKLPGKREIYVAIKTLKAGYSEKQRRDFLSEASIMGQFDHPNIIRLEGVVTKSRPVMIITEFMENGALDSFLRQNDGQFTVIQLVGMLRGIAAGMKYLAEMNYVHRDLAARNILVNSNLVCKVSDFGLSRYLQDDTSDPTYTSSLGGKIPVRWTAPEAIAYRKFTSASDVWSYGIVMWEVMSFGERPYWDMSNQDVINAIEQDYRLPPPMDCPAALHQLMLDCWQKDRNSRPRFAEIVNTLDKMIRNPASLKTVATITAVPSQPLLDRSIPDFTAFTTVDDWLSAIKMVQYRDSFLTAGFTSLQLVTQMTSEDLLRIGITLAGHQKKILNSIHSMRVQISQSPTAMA
MERTK, sequence (Q12866 whole entry, looked up): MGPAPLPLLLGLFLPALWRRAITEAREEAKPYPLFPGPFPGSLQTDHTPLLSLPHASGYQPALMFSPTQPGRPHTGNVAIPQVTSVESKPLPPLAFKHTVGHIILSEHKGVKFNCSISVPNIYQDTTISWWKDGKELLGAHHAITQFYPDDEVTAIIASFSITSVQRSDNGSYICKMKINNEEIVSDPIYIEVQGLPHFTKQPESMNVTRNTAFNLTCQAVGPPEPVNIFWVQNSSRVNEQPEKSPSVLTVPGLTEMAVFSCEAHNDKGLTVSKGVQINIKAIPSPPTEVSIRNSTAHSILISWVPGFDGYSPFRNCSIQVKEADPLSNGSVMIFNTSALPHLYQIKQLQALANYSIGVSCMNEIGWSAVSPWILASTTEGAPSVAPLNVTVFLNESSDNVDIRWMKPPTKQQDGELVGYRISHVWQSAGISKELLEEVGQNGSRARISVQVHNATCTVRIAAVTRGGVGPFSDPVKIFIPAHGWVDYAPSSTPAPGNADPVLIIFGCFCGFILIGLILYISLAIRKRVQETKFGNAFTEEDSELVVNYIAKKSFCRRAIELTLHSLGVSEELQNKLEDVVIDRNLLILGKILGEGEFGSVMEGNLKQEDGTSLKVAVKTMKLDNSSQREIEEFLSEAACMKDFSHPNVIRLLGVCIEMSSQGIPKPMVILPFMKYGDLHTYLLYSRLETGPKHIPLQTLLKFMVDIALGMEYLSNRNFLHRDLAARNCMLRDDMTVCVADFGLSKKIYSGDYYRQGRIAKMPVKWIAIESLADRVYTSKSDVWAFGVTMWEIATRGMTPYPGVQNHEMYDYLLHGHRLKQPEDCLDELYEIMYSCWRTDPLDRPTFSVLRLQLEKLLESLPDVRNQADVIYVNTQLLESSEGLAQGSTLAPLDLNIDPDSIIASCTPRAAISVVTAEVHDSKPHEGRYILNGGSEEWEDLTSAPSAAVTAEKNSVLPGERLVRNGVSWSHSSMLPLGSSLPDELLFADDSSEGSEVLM
FGFR1, sequence (P11362 whole entry, looked up): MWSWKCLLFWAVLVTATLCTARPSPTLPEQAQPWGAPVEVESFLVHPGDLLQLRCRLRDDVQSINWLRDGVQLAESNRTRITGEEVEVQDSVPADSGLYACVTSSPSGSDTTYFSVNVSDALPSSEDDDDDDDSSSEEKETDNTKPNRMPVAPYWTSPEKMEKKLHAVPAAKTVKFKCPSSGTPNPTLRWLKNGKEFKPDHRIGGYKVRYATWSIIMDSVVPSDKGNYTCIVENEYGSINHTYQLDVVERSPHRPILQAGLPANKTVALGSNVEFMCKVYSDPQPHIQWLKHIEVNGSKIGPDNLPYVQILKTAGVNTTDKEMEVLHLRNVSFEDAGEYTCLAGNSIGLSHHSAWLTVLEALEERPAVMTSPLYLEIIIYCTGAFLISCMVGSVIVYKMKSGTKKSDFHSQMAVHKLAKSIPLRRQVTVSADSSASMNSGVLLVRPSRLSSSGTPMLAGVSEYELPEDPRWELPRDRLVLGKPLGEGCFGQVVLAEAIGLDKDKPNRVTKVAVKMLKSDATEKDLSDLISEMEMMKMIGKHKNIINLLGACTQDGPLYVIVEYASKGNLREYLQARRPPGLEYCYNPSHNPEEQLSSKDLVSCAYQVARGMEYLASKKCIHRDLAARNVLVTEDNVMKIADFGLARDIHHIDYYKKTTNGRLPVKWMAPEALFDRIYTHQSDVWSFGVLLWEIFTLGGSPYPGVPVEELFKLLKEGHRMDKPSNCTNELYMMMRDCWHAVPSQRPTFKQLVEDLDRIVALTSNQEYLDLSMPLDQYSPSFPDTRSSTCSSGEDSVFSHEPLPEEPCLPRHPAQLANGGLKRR
Grb2 SH2, sequence (P62993 whole entry, looked up): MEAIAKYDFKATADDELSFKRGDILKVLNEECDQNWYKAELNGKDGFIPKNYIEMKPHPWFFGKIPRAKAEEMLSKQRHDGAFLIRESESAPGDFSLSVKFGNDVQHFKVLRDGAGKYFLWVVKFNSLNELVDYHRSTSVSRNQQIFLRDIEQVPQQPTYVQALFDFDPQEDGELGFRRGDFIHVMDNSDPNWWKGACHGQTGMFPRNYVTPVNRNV
EPHB2, sequence (P29323 whole entry, looked up): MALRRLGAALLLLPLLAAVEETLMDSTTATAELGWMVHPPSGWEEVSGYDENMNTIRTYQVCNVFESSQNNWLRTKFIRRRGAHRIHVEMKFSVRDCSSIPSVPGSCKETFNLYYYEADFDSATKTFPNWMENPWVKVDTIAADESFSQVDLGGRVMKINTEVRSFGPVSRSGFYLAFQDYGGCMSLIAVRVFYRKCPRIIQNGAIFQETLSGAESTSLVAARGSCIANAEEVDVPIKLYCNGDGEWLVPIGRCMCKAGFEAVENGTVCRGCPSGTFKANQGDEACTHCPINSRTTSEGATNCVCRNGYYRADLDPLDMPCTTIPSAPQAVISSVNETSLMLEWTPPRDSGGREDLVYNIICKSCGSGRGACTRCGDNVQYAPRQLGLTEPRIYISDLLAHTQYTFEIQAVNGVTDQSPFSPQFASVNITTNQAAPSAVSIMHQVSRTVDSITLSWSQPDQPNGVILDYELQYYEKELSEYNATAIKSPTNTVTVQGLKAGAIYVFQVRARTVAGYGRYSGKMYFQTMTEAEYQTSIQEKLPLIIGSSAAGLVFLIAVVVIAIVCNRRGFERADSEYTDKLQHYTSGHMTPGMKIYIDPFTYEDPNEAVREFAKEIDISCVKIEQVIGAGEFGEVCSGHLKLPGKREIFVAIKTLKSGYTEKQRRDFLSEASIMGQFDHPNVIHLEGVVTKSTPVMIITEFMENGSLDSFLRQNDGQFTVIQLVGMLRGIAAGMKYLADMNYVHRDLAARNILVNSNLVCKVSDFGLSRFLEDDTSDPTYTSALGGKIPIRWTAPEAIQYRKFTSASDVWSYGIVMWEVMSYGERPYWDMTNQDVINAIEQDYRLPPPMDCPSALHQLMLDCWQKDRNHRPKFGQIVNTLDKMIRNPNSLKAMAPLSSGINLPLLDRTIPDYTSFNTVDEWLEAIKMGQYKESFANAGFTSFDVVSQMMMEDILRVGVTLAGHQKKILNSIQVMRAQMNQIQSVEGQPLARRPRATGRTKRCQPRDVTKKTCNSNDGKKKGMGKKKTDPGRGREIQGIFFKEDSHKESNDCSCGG

Sequence | phosphorylation enrichment (Fyn) | phosphorylation enrichment (FGFR3) | phosphorylation enrichment (EPHB1) | phosphorylation enrichment (Hck) | phosphorylation enrichment (c-Abl (mouse)) | phosphorylation enrichment (Jak2) | phosphorylation enrichment (AncSZ) | phosphorylation enrichment (MERTK) | phosphorylation enrichment (Fer (mouse)) | phosphorylation enrichment (FGFR1) | phosphorylation enrichment (Fes) | phosphorylation enrichment (c-Src) | phosphorylation enrichment (EPHB2) | SH2 binding enrichment (SHP2-C SH2) | SH2 binding enrichment (Grb2 SH2) | SH2 binding enrichment (c-Src SH2)
PMQLPYDSTWE [PDGFRB_Y589] | 0.561 | 0.646 | 0.533 | 0.554 | 1.12 | 1.24 | 0.975 | 0.573 | 0.575 | 0.438 | 1.69 | 1.1 | 0.399 | 1.47 | 0.673 | 1.17
PNQRRYVYYYS [PTEN_Y174_S170N] | 1.86 | 1.61 | 1.07 | 1.29 | 0.841 | 1.37 | 2.88 | 3.81 | 0.817 | 3 | 2.29 | 1.06 | 1.57 | 3.49 | 1.17 | 2.17
PPDGEYFTLQI [TP53_Y327_L323P] | 3.74 | 10.2 | 1.19 | 2.75 | 2.33 | 3.69 | 3.41 | 0.902 | 1.41 | 12.4 | 1.74 | 5.4 | 1.14 | 1.1 | 0.561 | 0.537
PQGVRYTYTID [DCX_Y103_I104T] | 0.587 | 0.784 | 0.702 | 0.601 | 0.605 | 1.05 | 1.05 | 0.338 | 0.499 | 0.57 | 1.36 | 0.634 | 0.495 | 3.15 | 0.779 | 1.55
PSAELYSNALP [PDGFRB_Y716] | 1.66 | 1.73 | 2.63 | 3.02 | 0.96 | 0.849 | 1.55 | 7.96 | 7.66 | 1.79 | 1.79 | 1.38 | 1.91 | 0.734 | 1.19 | 0.629
PTQLPYDHKWE [KIT_Y578] | 0.491 | 0.696 | 0.716 | 0.87 | 0.655 | 0.68 | 0.859 | 0.449 | 0.601 | 0.581 | 1.33 | 0.618 | 0.631 | 0.575 | 0.923 | 0.524
PVADRYDQSFE [MAPK14_Y323_P322R] | 0.589 | 0.796 | 0.475 | 0.441 | 0.844 | 1.1 | 0.867 | 0.448 | 0.518 | 0.653 | 1.5 | 0.717 | 0.695 | 0.838 | 0.926 | 0.945
PVLSLYASGRT [ACTA1_Y145_A140P] | 0.616 | 0.703 | 0.637 | 0.768 | 1.31 | 1.39 | 1.14 | 0.752 | 0.539 | 0.328 | 1.19 | 0.573 | 0.548 | 0.926 | 0.841 | 0.484
PVPKTYDMLNA [PKP2_Y108_K112N] | 0.666 | 0.737 | 0.512 | 1.07 | 1.05 | 1.04 | 0.866 | 1.14 | 0.542 | 0.597 | 1.11 | 0.83 | 0.622 | 0.659 | 0.962 | 1.57
PVQAAYQKVVA [HBB_Y131] | 0.418 | 0.591 | 0.694 | 0.505 | 0.716 | 0.37 | 0.41 | 0.716 | 0.557 | 0.645 | 0.438 | 0.471 | 0.536 | 0.516 | 0.795 | 0.706
PVQAAYQKVVD [HBB_Y131_A136D] | 0.621 | 0.515 | 0.493 | 0.931 | 0.432 | 0.577 | 0.831 | 0.38 | 0.384 | 0.655 | 1.01 | 0.458 | 1.06 | 0.697 | 1.12 | 0.719
QAQMDYRRLQP [MPL_Y591] | 0.543 | 0.788 | 0.373 | 0.367 | 0.622 | 0.795 | 0.666 | 0.321 | 0.48 | 0.306 | 0.942 | 0.428 | 0.439 | 0.63 | 0.819 | 0.319
QCTSAYLLQPE [NANS_Y188_P189L] | 1.01 | 1.21 | 0.555 | 0.596 | 1.24 | 1.19 | 1.41 | 0.785 | 0.611 | 0.733 | 1.49 | 1.4 | 0.727 | 0.922 | 0.793 | 0.473
QDGFSYLSRQM [LDLR_Y847_P848L_YF] | 0.772 | 0.995 | 0.584 | 0.748 | 0.563 | 0.844 | 0.985 | 0.413 | 0.636 | 0.872 | 1.07 | 0.461 | 0.797 | 0.557 | 0.983 | 0.406
QDGFSYPSRQM [LDLR_Y847_YF] | 0.434 | 0.325 | 0.218 | 0.522 | 0.621 | 0.454 | 0.378 | 0.415 | 0.409 | 0.453 | 0.53 | 0.398 | 0.479 | 0.725 | 1.48 | 0.66
QDRTYYERVRT [SPEN_Y633_S635R] | 1.35 | 0.697 | 0.732 | 5.76 | 0.639 | 0.556 | 0.947 | 0.629 | 2.62 | 0.749 | 0.728 | 1.79 | 0.767 | 2.04 | 0.792 | 2.47
QEIATYPRLLE [KRT14_Y415_R416P] | 0.611 | 0.869 | 0.581 | 0.845 | 1.07 | 1.43 | 1.08 | 0.515 | 0.792 | 0.77 | 1.62 | 0.595 | 1.04 | 0.705 | 0.575 | 0.443

Sequence | phosphorylation enrichment (Fyn) | phosphorylation enrichment (FGFR3) | phosphorylation enrichment (EPHB1) | phosphorylation enrichment (Hck) | phosphorylation enrichment (c-Abl (mouse)) | phosphorylation enrichment (Jak2) | phosphorylation enrichment (AncSZ) | phosphorylation enrichment (MERTK) | phosphorylation enrichment (Fer (mouse)) | phosphorylation enrichment (FGFR1) | phosphorylation enrichment (Fes) | phosphorylation enrichment (c-Src) | phosphorylation enrichment (EPHB2) | SH2 binding enrichment (SHP2-C SH2) | SH2 binding enrichment (Grb2 SH2) | SH2 binding enrichment (c-Src SH2)
QEKKGYFEDRC [GLUL_Y336_R341C] | 0.609 | 0.716 | 0.522 | 0.655 | 0.843 | 1 | 1.06 | 0.799 | 0.519 | 0.804 | 1.29 | 0.613 | 0.631 | 0.948 | 1.5 | 0.589
QERPEYWDQET [HLA-A_Y83_G80R] | 0.646 | 0.915 | 0.693 | 0.696 | 1.14 | 1.56 | 1.81 | 0.566 | 1.14 | 0.727 | 1.58 | 0.554 | 0.702 | 0.827 | 0.985 | 0.626
QGGRCYMMIVD [GAA_Y438_R437C] | 0.87 | 1.83 | 1.35 | 0.769 | 1.81 | 2.11 | 2.31 | 0.928 | 0.948 | 0.815 | 2.69 | 1.03 | 1.29 | 0.674 | 0.696 | 0.957
QLDQRYLLVPE [DDX49_Y223] | 0.574 | 0.799 | 0.613 | 0.664 | 0.665 | 0.748 | 1.12 | 0.572 | 0.374 | 0.843 | 0.978 | 0.701 | 0.807 | 0.715 | 0.754 | 0.763
QLQVFYATLDQ [MIPEP_Y579] | 1.8 | 1.34 | 1.09 | 3.38 | 2.27 | 2.12 | 1.74 | 7.63 | 2.77 | 1.12 | 2.19 | 3.92 | 1.99 | 5.62 | 1.26 | 3.26
QMQNPYSRHSS [MUC13_Y501] | 0.418 | 0.495 | 0.363 | 0.544 | 0.57 | 0.468 | 0.521 | 0.346 | 0.648 | 0.572 | 0.584 | 0.472 | 0.416 | 0.758 | 0.974 | 0.558
QMVGMYASSSM [AVPR2_Y124_Y128S] | 0.438 | 0.435 | 0.73 | 0.766 | 0.807 | 0.635 | 0.647 | 0.504 | 0.472 | 0.477 | 0.645 | 0.567 | 0.403 | 0.756 | 0.869 | 0.685
QNVADYMRFLM [RPL5_Y207_YF] | 1.2 | 1.09 | 1.79 | 1.09 | 1.42 | 2.91 | 1.73 | 0.814 | 0.818 | 0.871 | 1.97 | 1.64 | 1.92 | 0.842 | 0.894 | 0.62
QPTPGYEVGQR [TSC2_Y1788_E1783Q] | 0.541 | 0.621 | 0.454 | 0.535 | 0.443 | 0.444 | 0.637 | 0.255 | 0.21 | 0.609 | 0.759 | 0.329 | 0.474 | 0.666 | 1.07 | 0.572
QQLQGYIPSNY [FRK_Y99] | 0.356 | 0.49 | 0.473 | 0.633 | 0.47 | 0.647 | 0.623 | 0.475 | 0.329 | 0.314 | 0.671 | 0.382 | 0.437 | 0.477 | 0.944 | 0.333
QRALLYEDTLF [UNC13D_Y56_A59T_YF] | 1.49 | 0.853 | 15.4 | 1.65 | 1.13 | 1.68 | 1.58 | 9.24 | 17.9 | 0.599 | 4.74 | 1.95 | 13.9 | 0.82 | 0.739 | 0.547
QRIFQYIRSRF [DYRK1B_Y273_Q275R_YF] | 0.837 | 0.695 | 0.817 | 0.83 | 0.988 | 1.24 | 1.07 | 0.975 | 0.827 | 0.75 | 1.26 | 1.36 | 0.795 | 0.467 | 0.765 | 0.521
QRRLVYFERGA [RYR1_Y245_G248R_YF] | 0.584 | 0.742 | 0.665 | 0.507 | 0.805 | 0.811 | 0.847 | 0.484 | 0.586 | 0.918 | 0.827 | 0.569 | 0.79 | 0.578 | 0.942 | 0.65
QSRSPYSSRHS [CDK13_Y415_R410Q] | 0.715 | 0.541 | 0.471 | 0.593 | 0.597 | 0.823 | 0.85 | 0.452 | 0.543 | 0.558 | 0.808 | 0.705 | 0.443 | 0.852 | 1.2 | 0.549
QTEAQYRFIFM [PTPN11_Y511_YF] | 0.612 | 1.02 | 0.774 | 0.688 | 1.82 | 1.78 | 1.18 | 0.58 | 0.785 | 0.893 | 1.92 | 0.702 | 0.467 | 0.777 | 0.627 | 0.355
QTLTDYDTRFY [CSNK2A3_Y131_I133T] | 0.556 | 0.69 | 0.861 | 0.619 | 0.692 | 1.06 | 1.01 | 0.483 | 0.749 | 0.612 | 1.25 | 0.428 | 0.667 | 0.757 | 0.815 | 0.678
